# Bridge positions count the residues as written; N and C are the ends. Ends that are not written are not given here.
# T1: human IL-2Rα subunit (human, UniProt P01589 22-213, limits assumed)
# T1 construct: also called CD25
# T1 sequence (looked up): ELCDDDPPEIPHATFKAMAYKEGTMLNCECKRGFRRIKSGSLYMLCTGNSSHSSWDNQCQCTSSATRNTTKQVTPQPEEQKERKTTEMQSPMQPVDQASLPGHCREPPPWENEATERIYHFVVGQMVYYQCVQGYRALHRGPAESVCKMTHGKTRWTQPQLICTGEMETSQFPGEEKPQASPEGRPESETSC
# Biological target: T1, human IL-2Rα subunit
row,Binder,IC50
1,ASCSLVWQDSWVCIF [SEQ ID NO 164],< 100 µM
2,FIPWDEYFKQVL [SEQ ID NO 11],< 100 µM
3,RGCMLRLQPELACVF [SEQ ID NO 147],< 100 µM
4,VGCSLVWTDRWECIF (disulfide 3-13 (inferred)) [SEQ ID NO 156],< 100 µM
5,RGCSLVWSGSWECIF [SEQ ID NO 154],< 100 µM
6,RGCSLVWAGSWECIF [SEQ ID NO 159],< 100 µM
7,TRMCFDDPGWHSCPVV [SEQ ID NO 136],< 100 µM
8,SRCTLVFDDSWVCVF [SEQ ID NO 153],< 100 µM
9,ARCSLVWDEAWVCIF [SEQ ID NO 158],< 100 µM
10,NHCTLSKTYPWVCVF (disulfide 3-13 (inferred)) [SEQ ID NO 145],< 100 µM
11,RGCSLRFAEAWECIF [SEQ ID NO 163],< 100 µM
12,GGCSLVWADSWVCIF [SEQ ID NO 148],< 100 µM
13,SRCSLVWTDTWVCVF [SEQ ID NO 152],< 100 µM
14,TRWCSLHPGVGECVTL [SEQ ID NO 137],< 100 µM
15,TTVCDYHPGSRYCINE [SEQ ID NO 138],< 100 µM
16,SGCSLQWADGWVCIF (disulfide 3-13 (inferred)) [SEQ ID NO 157],< 100 µM
17,FVPWDEYFLQIL [SEQ ID NO 15],< 100 µM
18,YASCTYLPGHRGCTLV [SEQ ID NO 139],< 100 µM
19,RRCTLVFLDSWECIF (disulfide 3-13 (inferred)) [SEQ ID NO 161],< 100 µM
20,SRCSLVWAENWVCIF [SEQ ID NO 160],< 100 µM
21,RQFCLVSPGYEDCWFV [SEQ ID NO 135],< 100 µM
22,FIPWEEYFSQLL [SEQ ID NO 13],< 100 µM
23,FIPWPEYFSQLL [SEQ ID NO 14],< 100 µM
24,SACQLKWDEGWTCLF [SEQ ID NO 144],< 100 µM
25,QRCNRSLLDALICQA [SEQ ID NO 146],< 100 µM
26,WLPCDDYPGHGYCYSR (disulfide 4-13 (inferred)) [SEQ ID NO 140],< 100 µM
27,QACQLVWLDSWVCIF [SEQ ID NO 155],< 100 µM
28,RGCTLAWEDSWVCIF (disulfide 3-13 (inferred)) [SEQ ID NO 162],< 100 µM
29,FVPWPEYFLQIM [SEQ ID NO 12],< 100 µM

# Further lines, results first:
row,IC50,Binder
1,< 100 µM,NGCTLSFSGMSWTCVY (disulfide 3-14 (inferred)) [SEQ ID NO 185]
2,< 100 µM,SKCHLIVSGKFHECVF [SEQ ID NO 191]
3,< 100 µM,QSCTLQRLGHLYQCWF [SEQ ID NO 189]
4,< 100 µM,PSCRLWNPGFGWECIF [SEQ ID NO 188]
5,< 100 µM,GCTLKWESPNWTCY [SEQ ID NO 169]
6,< 100 µM,ATCMLRLLGDGWGCVF [SEQ ID NO 181]
7,< 100 µM,LACILSKPGEHWECLF [SEQ ID NO 184]
8,< 100 µM,NTCKLFRSGNIWQCIF [SEQ ID NO 187]
9,< 100 µM,NSCILSNPGLGWQCVF [SEQ ID NO 186]
10,< 100 µM,QRCQLSWSGGELGCMF (disulfide 3-14 (inferred)) [SEQ ID NO 178]
11,< 100 µM,SCTVRWDGDWWVCE [SEQ ID NO 170]
12,< 100 µM,GCTLSWNQGWWHCV [SEQ ID NO 172]
13,< 100 µM,GCMLTRGKFWWECI [SEQ ID NO 173]
14,< 100 µM,GRCHLVWSDRWECIF [SEQ ID NO 166]
15,< 100 µM,SRCSLVWADSWVCIF [SEQ ID NO 165]
16,< 100 µM,GPCRLSNPGTGWECIF (disulfide 3-14 (inferred)) [SEQ ID NO 182]
17,< 100 µM,SACTPNWTGRWWECVF (disulfide 3-14 (inferred)) [SEQ ID NO 190]
18,< 100 µM,ARCSLHHTGSRYECIF [SEQ ID NO 180]
19,< 100 µM,GCSLMWQDGWWVCI [SEQ ID NO 171]
20,< 100 µM,KGCTLQNPGSGWVCLF [SEQ ID NO 183]
21,< 100 µM,AGCMLLKPGLYWECIF [SEQ ID NO 179]
22,< 100 µM,GCVLQFSGVWWECV (disulfide 2-13 (inferred)) [SEQ ID NO 174]
